Experimental findings from US20190388508A1 are described below.

In general, Kd refers to the equilibrium constant for the complex coming apart. Higher therefore signals weaker binding.

The target of assay [1] is T1, TNFR2, P20333.
T1 chain: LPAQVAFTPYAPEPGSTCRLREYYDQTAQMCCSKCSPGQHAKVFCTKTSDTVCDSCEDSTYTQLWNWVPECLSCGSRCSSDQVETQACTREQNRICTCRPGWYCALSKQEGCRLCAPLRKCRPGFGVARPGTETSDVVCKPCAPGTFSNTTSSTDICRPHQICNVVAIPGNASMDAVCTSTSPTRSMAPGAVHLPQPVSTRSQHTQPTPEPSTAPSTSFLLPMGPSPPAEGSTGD
Put plainly: method not stated. The note with it: remark: other sources report otherwise.

In assay [2] the target is T1, TNFR2, P20333. Put plainly: method not stated; reference TNFα. Particulars: remark: other sources report otherwise.

B1: Progranulin (PGRN), P28799 18-593 (ligand)
chain: TRCPDGQFCPVACCLDPGGASYSCCRPLLDKWPTTLSRHLGGPCQVDAHCSAGHSCIFTVSGTSSCCPFPEAVACGDGHHCCPRGFHCSADGRSCFQRSGNNSVGAIQCPDSQFECPDFSTCCVMVDGSWGCCPMPQASCCEDRVHCCPHGAFCDLVHTRCITPTGTHPLAKKLPAQRTNRAVALSSSVMCPDARSRCPDGSTCCELPSGKYGCCPMPNATCCSDHLHCCPQDTVCDLIQSKCLSKENATTDLLTKLPAHTVGDVKCDMEVSCPDGYTCCRLQSGAWGCCPFTQAVCCEDHIHCCPAGFTCDTQKGTCEQGPHQVPWMEKAPAHLSLPDPQALKRDVPCDNVSSCPSSDTCCQLTSGEWGCCPIPEAVCCSDHQHCCPQGYTCVAEGQCQRGSEIVAGLEKMPARRASLSHPRDIGCDQHTSCPVGQTCCPSLGGSWACCQLPHAVCCEDRQHCCPAGYTCNVKARSCEKEVVSAQPATFLARSPHVGVKDVECGEGHFCHDNQTCCRDNRQGWACCPYRQGVCCADRRHCCPAGFRCAARGTKCLRREAPRWDAPLRDPALRQLL
With B1, the Kd in the assay with TNFR2, P20333 [1] was found to be 1.52 nM. The molecule also showed a fold higher binding affinity than TNFα with TNFR2, P20333 [2] of 600 fold.
